Earlier results on one substance are cited in paper PMC7221782.

Where “and” joins values, the source holds several entries; their conditions need not be identical. Equal values may be shown once.

In the data set the target is Gal4 (Saccharomyces cerevisiae) (UniProt P04386).

For the substance Gal4 (from UniProt P04386), the Kd (as a rule, a measure of binding affinity in units of concentration) was 8.5 µM and 20 µM.
